Test [1] relates to rat Müller cell line, rMC-1. In words: Quantification of viable cells by MTT assay, Müller cell line. It counts as cell-based. The following applies: 5-160 nM, 72 h, P>0.05. The protocol: FIG. 2 illustrates the specific inhibition of endothelial cell proliferation by recombinant kallistatin. RCEC were treated with recombinant kallistatin at concentrations of 5,10, 20, 40, 80 and 160 nM for 72 h. Viable cells were quantified by MTT assay. […] This effect appeared to be kallistatin concentration-dependent, with an apparent IC50 of 50 nM (FIG. 2) which is similar to that of K5, a known angiogenic inhibitor (Zhang et al., 2001).
Quantification of viable cells: Cells were plated in 12-well plates in triplicate and cultured in the growth medium until they reached 60-70% of confluency. The culture medium was replaced with a medium containing 1% fetal bovine serum (FBS). Recombinant kallistatin was added to the cover medium to various concentrations and incubated with the cells for 72 h. The viable cells were quantified by the MTT (3-[4,5-dimethylthiazol-2-yl]-2,5-dephenyl tetrazolium bromid, Roche, Mannheim, Germany) assay following a protocol recommended by the manufacturer. The effect of kallistatin on viable cell number was analyzed using Student's t test.
(In general: Tetrazolium assays rely on reduction of a dye to a coloured formazan, in cell work by metabolically active cells.)

In test [2] the test system is RCEC. In words: [3H] thymidine incorporation assay. The following applies: 5 to 160 nM. It counts as cell-based, bovine. The method, then:
[^3H] thymidine incorporation assay: RCEC were seeded in 24-well plates in 1:1 DMEM +F-12 nutrient mixture plus 10% FBS and cultured in a CO2 incubator to reach 60-70% confluency. The cells were washed 3 times with PBS and the growth medium replaced by a medium containing 1% FBS and different concentrations of kallistatin. After 24 h culture, [^3H] thymidine was added to the medium (2 μCi/well) and incubated with the cells at 37° C. for 12 h. Free [^3H] thymidine was removed by 3 washes with PBS, and a solution of 6% TCA was added to the wells. The TCA solution was removed, and the wells were washed once with PBS. The remaining material was solubilized with 200 μl of 1 M NaOH (Smith et al., 1999). Incorporated [^3H] thymidine was measured with a microplate scintillation counter (Packard Instrument Company, Meriden, Conn.).
For orientation: Incorporation of labelled thymidine or its analogues reports DNA synthesis.

For test [3], the system named is vascular permeability in the retina, iris and choroid. Briefly: Vascular permeability by Evans blue leakage in OIR rats. It counts as in vivo, Brown Norway rats. The method, then: Next, the effect of kallistatin on vascular permeability was determined. At P14, two days after the rats were returned to normoxia, the OIR rats received an intravitreal injection of 3 μl of kallistatin of concentrations of 2.4, 4.8 and 9.6 mg/ml in the right eye (4 animals per dose group), and the same volume of PBS in the left. Two days after the kallistatin injection (P16), vascular permeability was measured by the Evans blue leakage method. […] Kallistatin injection decreased vascular permeability in a dose-dependent manner in the retina, iris and choroid of the hyperoxia-treated rats (FIG. 6).
Measurement of vascular permeability: Vascular permeability was quantified by measuring albumin leakage from blood vessels into the retina, iris and choroid using Evans blue following a documented protocol (Xu et al., 2001) with minor modifications. Evans blue dye (Sigma, St. Louis, Mo.) was dissolved in normal saline (30 mg/ml), sonicated for 5 min and filtered through a 0.45-μm filter (Millipore, Bedford, Mass.). The rats were anesthetized, and Evans blue (30 mg/kg) was injected over 10 seconds through the femoral vein using a glass capillary under microscopic inspection. Evans blue non-covalently binds to plasma albumin in the blood stream (Radius et al., 1980). Immediately after Evans blue infusion, the rats turned visibly blue, confirming their uptake and distribution of the dye. The rats were kept on a warm pad for 2 h to ensure the complete circulation of the dye. Then the chest cavity was opened, and the rats were perfused via the left ventricle with 1% paraformaldehyde in citrate buffer (pH=4.2) which was pre-warmed to 37° C. to prevent vasoconstriction. The perfusion lasted 2 min under the physiological pressure of 120 mmHg to clear the dye from the vessel. Immediately after perfusion, the eyes were enucleated and the retina, iris and choroid were carefully dissected under an operating microscope. Evans blue dye was extracted by incubating each sample in 150 μl formamide for 18 h at 70° C. The extract was centrifuged (TL; Beckman) at 70,000 rpm (Rotor type: TLA 100.3) for 20 min at 4° C. Absorbance was measured using 100 μl of the supernatant at 620 nm. The concentration of Evans blue in the extracts was calculated from a standard curve of Evans blue in formamide and normalized by the total protein concentration in each sample. Results were expressed in micrograms of Evans blue per milligrams of total protein content.

Test [4] relates to RCEC. In words: Quantitative analysis of apoptosis by Annexin V/PI flow cytometry. It counts as cell-based, bovine. The following applies: 24 h, 40-640 nM. The protocol: To determine whether kallistatin might induce cell death, RCEC were incubated with different concentrations of kallistatin or 10 μM chochicine for 24 h, and the apoptotic cells were quantified using the Annexin V-flow cytometry method. Phosphatidylserine externalization is a characteristic of cells undergoing apoptosis. The Annexin V-FITC kit allows for fluorescent detection of Annexin V bound to apoptotic cells and quantitative determination by flow cytometry. The Annexin V-FITC kit uses Annexin V conjugated with fluorescein isothiocyante (FITC) to label phosphatidylserine sites on the membrane surface. The kit includes propidium iodide (PI) to label the cellular DNA in necrotic cells where the cell membrane has been totally compromised. This combination allows the differentiation among early apoptotic cells (Annexin V positive, PI negative), necrotic cells (Annexin V positive, PI positive), and viable cells (Annexin V negative, PI negative) which can be located in the lower right, upper right, and lower left quadrants of the cytograms, respectively (FIG. 4a). Because only cells that are Annexin V-positive and PI-negative are truly apoptotic cells, the percentage of this cell population was quantified.
Quantitative analysis of apoptosis by flow cytometry: RCEC were plated at a density of 10^5 cells/well in 6-well plates. […] The cells were subsequently counted by flow cytometry.
On the technique in general: Flow cytometry measures light scatter and fluorescence of single cells or particles in a stream.

[5] abbreviates: 3 μl of 4.8 mg/ml intravitreal, P<0.05.
Setting [6] is: 3 μl of 9.6 mg/ml intravitreal at P14, measured P16, P<0.01.

B1: kallistatin: Recombinant His-tagged rat kallistatin (serpin, SEQ ID NO:1) expressed in E. coli and affinity-purified (protein, listed as Homo sapiens)
chain: DGILGRDTLPHEDQGKGRQLHSLTLASINTDFTLSLYKKLALRNPDKNVVFSPLSISAALAILSLGAKDSTMEEILEVLKFNLTEITEEEIHHQGFGHLLQRLSQPEDQAEINTGSALFIDKEQPILSEFQEKTRALYQAEAFVADFKQCNEAKKFINDYVSNQTQGKIAELFSELDERTSMVLVNYLLFKGKWKVPFNPNDTFESEFYLDEKRSVKVPMMKIKDLTTPYIRDEELSCSVLELKYTGNASALFILPDQGKMQQVESSLQPETLKKWKDSLRPRIISELRMPKFSISTDYNLEEVLPELGIRKIFSQQADLSRITGTKNLHVSQVVHKAVLDVDETGTEGAAATAVTAALKSLPQTIPPLNFNRPFMLVITDNNGQSVFFMGKVTNPM
modifications: His tag
For the molecule B1, the “inhibition of the Müller cell line (viable cells)” value in test [1] is “did not result in any significant inhibition”. Moreover, in the test on RCEC [2], the “thymidine incorporation (cell proliferation rate)” value is reported as “inhibited thymidine incorporation in RCEC in a concentration-dependent manner”. Also, in test [3] (3 μl of 2.4 mg/ml intravitreal), the “vascular permeability, choroid” value is on record as “did not show any significant effect”; the “vascular permeability, iris” value was “did not show any significant effect”; the “vascular permeability, retina” value is “did not show any significant effect”. Further, the “vascular leakage, choroid” value in test [3] (3 μl of 4.8 mg/ml intravitreal) is reported as “not in the choroid”. Also, in test [3] (setting [5]), the “vascular leakage, iris” value was “significantly decreased vascular leakage” and the “vascular leakage, retina” value is listed as “significantly decreased vascular leakage”. Further, in test [3] (setting [6]), the “vascular permeability, iris” value is on record as “significant decrease in permeability” and the “vascular permeability, retina” value is given as “significant decrease in permeability”. Also, the “vascular permeability, choroid” value in test [3] (3 μl of 9.6 mg/ml intravitreal at P14, measured P16, P<0.05) is “significant decrease in permeability”. The “apoptosis (Annexin V-positive, PI-negative cells)” value in the test with RCEC [4] is on record as “increases apoptosis in RCEC in a dose-dependent manner”.

The values above are taken from patent US20070298997A1, “Compounds useful in treating diabetic microvascular complications and age-related macular degeneration” (priority 2003, published 2007).
